# Laboratory results: paper PMC6811359
# How the values were obtained:
# [1] = target: isolated LOV domain of PAL (Nakamurella multipartita); experiment: SEC-MALS
# [2] = target: isolated LOV domain of PAL (Nakamurella multipartita); experiment: SEC
# [3] = target: PAL, light-oxygen-voltage (LOV) receptor from Nakamurella multipartita (Nakamurella multipartita); experiment: SEC-MALS
# [4] = target: PAL, light-oxygen-voltage (LOV) receptor from Nakamurella multipartita (Nakamurella multipartita); experiment: SEC
stoichiometry N [1],stoichiometry N [2],stoichiometry N [3],stoichiometry N [4],Substance
2,2,,,isolated LOV domain of PAL (domain or fragment)
,,2,2,"PAL, light-oxygen-voltage (LOV) receptor from Nakamurella multipartita (natural protein)"
